Each block holds one binder with its values, some of them ahead of it. Numbered stars: 1 amine (or outer) side, 2 acyl side, 3 side chain; on linkers, the order of the positions; unused ones are H or OH. Side chains are listed from the residue outwards. Ends that are not written are not given here. * marks the point of attachment. C18 diacid = O=C(O)CCCCCCCCCCCCCCCCC(=O)*; γGlu = O=C(O)[C@H](CCC(=O)[*:2])N[*:1]; AEEA = NCCOCCOCC(=O)O
Target: glucagon receptor (UniProt P47871 26-477, limits assumed)
Sequence (P47871 26-477 limits assumed): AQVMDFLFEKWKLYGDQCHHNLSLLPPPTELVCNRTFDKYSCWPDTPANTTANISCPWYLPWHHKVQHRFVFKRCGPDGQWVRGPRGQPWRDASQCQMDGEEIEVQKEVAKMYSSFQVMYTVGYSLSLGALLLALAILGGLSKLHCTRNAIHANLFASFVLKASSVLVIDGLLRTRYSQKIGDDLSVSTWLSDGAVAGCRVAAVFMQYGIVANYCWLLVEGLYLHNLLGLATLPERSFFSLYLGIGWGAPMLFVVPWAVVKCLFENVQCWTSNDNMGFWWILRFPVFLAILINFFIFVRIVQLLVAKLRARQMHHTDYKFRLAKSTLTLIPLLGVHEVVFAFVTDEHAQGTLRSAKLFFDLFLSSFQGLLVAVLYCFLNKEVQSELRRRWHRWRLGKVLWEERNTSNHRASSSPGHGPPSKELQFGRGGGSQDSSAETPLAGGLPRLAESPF
Test: cell-based or functional assay

Assay (I) Glucagon [EC50]: 0.018 nM
B1: N^ε16-([2-[2-[2-[[2-[2-[2-[[(4S)-5-hydroxy-4-[(18-hydroxy-18-oxooctadecanoyl)amino]-5-oxopentanoyl]amino]ethoxy]ethoxy]acetyl]amino]ethoxy]ethoxy]acetyl])[Lys^1 … (peptide)
peptide: HSQGTFTSDYSKYLDK([AEEA-AEEA-γGlu-C18 diacid])KRAQEFVQWLLNT-NH2
modifications: N-terminus assumed
SMILES: CC(C)C[C@H](NC(=O)[C@H](Cc1ccc(O)cc1)NC(=O)[C@H](CCCCN)NC(=O)[C@H](CO)NC(=O)[C@H](Cc1ccc(O)cc1)NC(=O)[C@H](CC(=O)O)NC(=O)[C@H](CO)NC(=O)[C@@H](NC(=O)[C@H](Cc1ccccc1)NC(=O)[C@@H](NC(=O)CNC(=O)[C@H](CCC(N)=O)NC(=O)[C@H](CO)NC(=O)[C@@H](N)Cc1c[nH]cn1)[C@@H](C)O)[C@@H](C)O)C(=O)N[C@@H](CC(=O)O)C(=O)N[C@@H](CCCCNC(=O)COCCOCCNC(=O)COCCOCCNC(=O)CC[C@H](NC(=O)CCCCCCCCCCCCCCCCC(=O)O)C(=O)O)C(=O)N[C@@H](CCCCN)C(=O)N[C@@H](CCCNC(=N)N)C(=O)N[C@@H](C)C(=O)N[C@@H](CCC(N)=O)C(=O)N[C@@H](CCC(=O)O)C(=O)N[C@@H](Cc1ccccc1)C(=O)N[C@H](C(=O)N[C@@H](CCC(N)=O)C(=O)N[C@@H](Cc1c[nH]c2ccccc12)C(=O)N[C@@H](CC(C)C)C(=O)N[C@@H](CC(C)C)C(=O)N[C@@H](CC(N)=O)C(=O)N[C@H](C(N)=O)[C@@H](C)O)C(C)C

Assay (I) Glucagon [EC50]: 0.942 nM
B2: (N^ε24-([2-[2-[2-[[2-[2-[2-[[(4S)-5-hydroxy-4-[(18-hydroxy-18-oxooctadecanoyl)amino]-5-oxopentanoyl]amino]ethoxy]ethoxy]acetyl]amino]ethoxy]ethoxy]acetyl])[Gln^ … (peptide)
peptide: HSQGTFTSDYSKYLDSQRAQDFVK([AEEA-AEEA-γGlu-C18 diacid])WLVKTGP-NH2
modifications: N-terminus assumed
SMILES: CC(C)C[C@H](NC(=O)[C@H](Cc1ccc(O)cc1)NC(=O)[C@H](CCCCN)NC(=O)[C@H](CO)NC(=O)[C@H](Cc1ccc(O)cc1)NC(=O)[C@H](CC(=O)O)NC(=O)[C@H](CO)NC(=O)[C@@H](NC(=O)[C@H](Cc1ccccc1)NC(=O)[C@@H](NC(=O)CNC(=O)[C@H](CCC(N)=O)NC(=O)[C@H](CO)NC(=O)[C@@H](N)Cc1c[nH]cn1)[C@@H](C)O)[C@@H](C)O)C(=O)N[C@@H](CC(=O)O)C(=O)N[C@@H](CO)C(=O)N[C@@H](CCC(N)=O)C(=O)N[C@@H](CCCNC(=N)N)C(=O)N[C@@H](C)C(=O)N[C@@H](CCC(N)=O)C(=O)N[C@@H](CC(=O)O)C(=O)N[C@@H](Cc1ccccc1)C(=O)N[C@H](C(=O)N[C@@H](CCCCNC(=O)COCCOCCNC(=O)COCCOCCNC(=O)CC[C@H](NC(=O)CCCCCCCCCCCCCCCCC(=O)O)C(=O)O)C(=O)N[C@@H](Cc1c[nH]c2ccccc12)C(=O)N[C@@H](CC(C)C)C(=O)N[C@H](C(=O)N[C@@H](CCCCN)C(=O)N[C@H](C(=O)NCC(=O)N1CCC[C@H]1C(N)=O)[C@@H](C)O)C(C)C)C(C)C

Assay (I) Glucagon [EC50]: 0.0235 nM
B3: N^ε24-([2-[2-[2-[[2-[2-[2-[[(4S)-5-hydroxy-4-[(18-hydroxy-18-oxooctadecanoyl)amino]-5-oxopentanoyl]amino]ethoxy]ethoxy]acetyl]amino]ethoxy]ethoxy]acetyl])[Glu^1 … (peptide)
peptide: HSQGTFTSDYSKYLDERRAQDFVK([AEEA-AEEA-γGlu-C18 diacid])WLLAT-NH2
modifications: N-terminus assumed
SMILES: CC(C)C[C@H](NC(=O)[C@H](CC(C)C)NC(=O)[C@H](Cc1c[nH]c2ccccc12)NC(=O)[C@H](CCCCNC(=O)COCCOCCNC(=O)COCCOCCNC(=O)CC[C@H](NC(=O)CCCCCCCCCCCCCCCCC(=O)O)C(=O)O)NC(=O)[C@@H](NC(=O)[C@H](Cc1ccccc1)NC(=O)[C@H](CC(=O)O)NC(=O)[C@H](CCC(N)=O)NC(=O)[C@H](C)NC(=O)[C@H](CCCNC(=N)N)NC(=O)[C@H](CCCNC(=N)N)NC(=O)[C@H](CCC(=O)O)NC(=O)[C@H](CC(=O)O)NC(=O)[C@H](CC(C)C)NC(=O)[C@H](Cc1ccc(O)cc1)NC(=O)[C@H](CCCCN)NC(=O)[C@H](CO)NC(=O)[C@H](Cc1ccc(O)cc1)NC(=O)[C@H](CC(=O)O)NC(=O)[C@H](CO)NC(=O)[C@@H](NC(=O)[C@H](Cc1ccccc1)NC(=O)[C@@H](NC(=O)CNC(=O)[C@H](CCC(N)=O)NC(=O)[C@H](CO)NC(=O)[C@@H](N)Cc1c[nH]cn1)[C@@H](C)O)[C@@H](C)O)C(C)C)C(=O)N[C@@H](C)C(=O)N[C@H](C(N)=O)[C@@H](C)O

Reference: patent US20130143798A1 (Novo Nordisk, published 2013)
